Measured values: paper PMC8559680, “Dynamics in Fip1 regulate eukaryotic mRNA 3′ end processing” (Genes & Development, 2021)

B1: Fip1_(226) (Fip1 residues 1–226), purified from E. coli (domain or fragment, yeast, UniProt P45976 1-226, looked up)
chain: MSSSEDEDDKFLYGSDSELALPSSKRSRDDEADAGASSNPDIVKRQKFDSPVEETPATARDDRSDEDIYSDSSDDDSDSDLEVIISLGPDPTRLDAKLLDSYSTAATSSSKDVISVATDVSNTITKTSDERLITEGEANQGVTATTVKATESDGNVPKAMTGSIDLDKEGIFDSVGITTIDPEVLKEKPWRQPGANLSDYFNYGFNEFTWMEYLHRQEKLQQDYNP
notes: Isotopically labelled (15N, 13C, 2H) where it is the observed species in NMR; cloned in pET28a+; also called Fip226; source: E. coli BL21 Star, purified (Ni-NTA, TEV cleavage, Superdex 75); not shown: His tag, N-terminal, cleaved

Columns and labels:
[1] = molecular target: Yth1ZF4 (Yth1 zinc finger 4) (yeast) (UniProt Q06102); test: ITC; MicroCal iTC200, 25°C, 50 mM HEPES (pH 7.4), 150 mM NaCl; single class-binding site model
[2] = molecular target: T1, CPFΔFip1 (recombinant CPF lacking Fip1; Pap1 also absent) (yeast, UniProt Q06632 1-1357; P42841 1-465; Q06102 1-208; Q12102 1-859; Q06224 1-779; P35728 …); test: mass photometry; Refeyn One iSCAT; samples diluted to 100 nM in 50 mM HEPES (pH 7.4), 150 mM NaCl; conditions: both partners purified
T1 construct: Cft1, yeast; as m20; Pfs2, yeast, untagged; as m19; Yth1, yeast, untagged; as m12; Cft2, yeast; as m21; Ysh1, yeast; as m22; Mpe1, yeast; as m23; Pta1, yeast; as m24; Ssu72, yeast; as m25; Pti1, yeast; as m26; Glc7, yeast; as m27; as m28; Swd2, yeast; as m29; Twelve subunits: Fip1 was omitted from the CPFcore construct and Pap1, though co-expressed, was absent from the purified complex; source: …

[3] = molecular target: B1; test: NMR titration; 15N-labelled Yth1 construct with unlabelled Fip1_(226), equimolar, 75 µM; chemical shift perturbations and line broadening; 700 MHz, 298 K, 50 mM HEPES (pH 7.4), 150 mM NaCl; conditions: both partners purified

For B1, the Kd [1] was 240 nM and the binding result [2] was “binds”.

B2: Yth1_(ZF45C) (Yth1 residues 118–208) (domain or fragment, yeast, UniProt Q06102 118-208, looked up)
chain: ASKIPKCENYEMGFCPLGSSCPRRHIKKVFCQRYMTGFCPLGKDECDMEHPQFIIPDEGSKLRIKRDDEINTRKMDEEKERRLNAIINGEV
notes: Yth1, yeast, zinc fingers 4 and 5 and the rest of the C-terminal region, residues 118–208; 15N- or 13C,15N-labelled where it is the observed species in NMR; cloned in pGEX6P-2; also called entire C-terminal half of Yth1; source: E. coli BL21 Star, purified (GST resin, 3C cleavage, Superdex 75); not shown: GST, N-terminal, cleaved
B2: binds [3].
